Experimental data reported in PMC3895269 (RNA, 2014).

Biological target: Geobacillus kaustophilus ribosomal protein S18 (Geobacillus kaustophilus, UniProt Q5KU71 1-78)
Assay: native gel or EMSA

B1: Geobacillus kaustophilus ribosomal protein S6 (natural protein)
chain: MRKYEIMYIIRPNMDDEARQALVERFNNVLKENGAEITNVTDWGKRRLAYEIQKYRDGYYMIVNVVSEPKAVQEFDRLARISEDIIRHIVVKEEE
- binding result: binds
